Results on one molecule are retold here after US20140378536A1 (VALTED, published 2014).

The target of the test is T1, FLAG-tagged PARIS (full-length PARIS, ZNF746, in pCMV-Tag2A) (human, UniProt Q6NUN9 1-644).
T1 construct: Expressed in SH-SY5Y cells from cDNA IMAGE:30347892; The construct limits it prints (1-644, 322-644) match the 644-residue human entry; also called FLAG-PARIS; pCMV-FLAG-PARIS; not shown: N-terminal FLAG tag of vector pCMV-Tag2A
Put plainly: co-immunoprecipitation, IP of FLAG-PARIS (FIG. 20). Here is the method: For co-immunoprecipitation from cell cultures, SH-SY5Y cells were transfected with 2 μg of each plasmid, unless otherwise indicated.

T1 sequence (Q6NUN9 whole entry): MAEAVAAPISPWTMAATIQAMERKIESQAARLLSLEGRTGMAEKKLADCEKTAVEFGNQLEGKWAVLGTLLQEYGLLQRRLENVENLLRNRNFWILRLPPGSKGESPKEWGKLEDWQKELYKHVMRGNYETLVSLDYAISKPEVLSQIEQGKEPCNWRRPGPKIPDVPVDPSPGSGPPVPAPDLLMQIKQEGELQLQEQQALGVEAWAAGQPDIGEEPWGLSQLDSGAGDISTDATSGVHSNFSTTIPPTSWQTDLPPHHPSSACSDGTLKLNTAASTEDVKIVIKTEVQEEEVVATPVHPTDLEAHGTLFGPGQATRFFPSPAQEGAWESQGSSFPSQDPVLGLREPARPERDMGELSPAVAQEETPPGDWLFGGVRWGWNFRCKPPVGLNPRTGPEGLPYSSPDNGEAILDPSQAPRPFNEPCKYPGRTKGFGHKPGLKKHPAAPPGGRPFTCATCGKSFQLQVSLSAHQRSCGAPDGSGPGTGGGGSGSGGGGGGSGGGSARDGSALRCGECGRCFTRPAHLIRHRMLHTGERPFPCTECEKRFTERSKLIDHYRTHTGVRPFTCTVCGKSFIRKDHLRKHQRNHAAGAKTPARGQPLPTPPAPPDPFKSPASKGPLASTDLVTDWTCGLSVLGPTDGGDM

B1: HA-tagged parkin truncation, amino acids 1-198 (UBL-SH) (other, UniProt O60260 1-198, looked up)
chain: MIVFVRFNSSHGFPVEVDSDTSIFQLKEVVAKRQGVPADQLRVIFAGKELRNDWTVQNCDLDQQSIVHIVQRPWRKGQEMNATGGDDPRNAAGGCEREPQSLTRVDLSSSVLPGDSVGLAVILHTDSRKDSPPAGSPAGRSIYNSFYVYCKGPCQRVQPGKLRVQCSTCRQATLTLTQGPSCWDDVLIPNRMSGECQS
notes: range 1-198; also called N-terminal UBL-SH domain; not shown: HA tag of vector pRK5-HA
For the molecule B1, the binding result was “no binding”.
